Measured values reported in US20190271710A1 (Janssen / Centocor, published 2019).

Key:
[1] = target: T1, calibrant peptide pT3xhT43 (two phosphothreonines (pT) in GSRSR(pT)PSLP(pT)PPTREPKKV; dPEG4 linkers between the three segments; C-terminal amide); assay: Simoa pT3xhT43 sandwich assay, calibrant titrated 30 to 0.041 pg/ml
T1 construct: Molecular weight 6893 g/mol
T1 peptide: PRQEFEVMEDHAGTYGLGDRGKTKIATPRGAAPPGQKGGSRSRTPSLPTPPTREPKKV
Description: (§1) The calibrant peptides were reconstituted to 5 mg/ml in 0.1% phosphoric acid/water, aliquoted to 20 ul and frozen. When ready for use, the calibrant peptide aliquots were thawed and diluted 1:1000 (e.g. 1.5 ul into 1498.5 ul), and the dilutions were diluted […] so that the final concentration of the peptides was 5000 pg/ml. A standard curve with 3× jumps was made, starting at 30 pg/ml.
(§2) Calibrant peptides described in Example 1 were produced. The calibrant peptides contained the core epitopes of pT3 and hT43, or pT3 and pT82 separated by PEG4 linkers, and they were used to generate standard curves. Calibrant peptides were titrated from 30 pg/ml to 0.041 pg/ml in 1:3 jumps in assay buffer and measured with the pT3xhT43 and pT3xpT82 assays. A 4-parameter curve fit data reduction method (4PL, 1/y2 weighted) was used to generate the calibration curve. The lower limit of detection (LLOD) was defined as the calculated calibrant level yielding an AEB equal to the average of the zero calibrator+2.5 standard deviations (SD), including 10% coefficient of variation (CV). With these criteria, the representative data yielded an LLOD of 0.002 pg/ml. The Linear Range of the assay, lower limit of quantification (LLOQ) and upper limit of quantification (ULOQ), was defined as the lowest and highest standard curve points achieving CV<20% and recovery 80-120% of expected. […]

[2] = target: T2, calibrant peptide pT3xpT82 (N-terminal acetyl; dPEG4 linker between the two segments; two phosphothreonines (pT) in GSRSR(pT)PSLP(pT)PPTREPKKV; C-terminal amide); assay: Simoa pT3xpT82 sandwich assay, calibrant titrated 30 to 0.041 pg/ml
T2 construct: Molecular weight 4551 g/mol
T2 peptide: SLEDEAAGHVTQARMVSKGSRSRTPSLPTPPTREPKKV
Description: as §1, §2

B1: pT3 mouse monoclonal antibody (antibody, V domains shown)
VH: EVKLVESGGDLVKPGGSLKLSCAASGFTFSSYAMSWVRQNPEKRLEWVASISKGGNTYYPNSVKGRFTISRDNARNILYLQMSSLRSEDTALYYCARGWGDYGWFAYWGQVTLVTVSA
VL: DIKMTQSPSSMYASLGERVTITCKASQDINRYLNWFQQKPGKSPKTLIYRANRLLDGVPSRFSGSGSGQDYSLTISSLDYEDMGIYYCLQYDEFPLTFGDGTKLELK
notes: Parental mouse mAb expressed by a mouse hybridoma; Used on capture beads, and as soluble antibody in spiking experiments; also called pT3 mAb
binding result [1]: binds

B2: pT82 mAb (antibody, V domains shown)
VH: EVKLEESGGGLVQPGGSMKLSCVASGFTFSNYWMNWIRQSPEKGLEWVAQIRLQSDNYATRYAESVKGRFTISRDESKTSVYLQMNNLRTEDTGIYYCTGGTTYWGQGTLVTVSA
VL: DIVMTQSQKFMSTSVGDRVSITCKASQNVGTAVAWYQQKPGQSPKLLIYSASIRYTGVPDRFTGSGSGTDFTLTINYMQSEDLADYFCQQFSSYPYTFGGGTKLEIK
notes: The majority assignment is used
binding result [2]: binds
